The values that follow come from IntAct's records for PubMed 23297211.

B1: Small glutamine-rich tetratricopeptide repeat-containing protein 2 (Saccharomyces cerevisiae), Q12118 (parent)
chain: MSASKEEIAALIVNYFSSIVEKKEISEDGADSLNVAMDCISEAFGFEREAVSGILGKSEFKGQHLADILNSASRVPESNKKDDAENVEINIPEDDAETKAKAEDLKMQGNKAMANKDYELAINKYTEAIKVLPTNAIYYANRAAAHSSLKEYDQAVKDAESAISIDPSYFRGYSRLGFAKYAQGKPEEALEAYKKVLDIEGDNATEAMKRDYESAKKKVEQSLNLEKTVPEQSRDADVDASQGASAGGLPDLGSLLGGGLGGLMNNPQLMQAAQKMMSNPGAMQNIQKMMQDPSIRQMAEGFASGGGTPNLSDLMNNPALRNMAGNLFGGAGAQSTDETPDNENKQ
partner: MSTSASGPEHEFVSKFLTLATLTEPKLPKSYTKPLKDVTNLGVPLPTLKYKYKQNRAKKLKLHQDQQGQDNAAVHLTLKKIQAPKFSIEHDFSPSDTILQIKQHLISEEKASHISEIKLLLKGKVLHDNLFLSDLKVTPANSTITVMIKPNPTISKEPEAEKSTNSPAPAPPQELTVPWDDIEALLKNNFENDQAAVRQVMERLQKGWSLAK

In this assay the parent is B1. The following applies: with mdy2_yeast MDY2, Q12285.
With MSASKEEIAALIVNYFSSIVEKKEISEDGADSLNVAMDCISRAFGFEREAVSGILGKSEFKGQHLADILNSASRVPESNKKDDAENVEINIPEDDAETKAKAEDLKMQGNKAMANKDYELAINKYTEAIKVLPTNAIYYANRAAAHSSLKEYDQAVKDAESAISIDPSYFRGYSRLGFAKYAQGKPEEALEAYKKVLDIEGDNATEAMKRDYESAKKKVEQSLNLEKTVPEQSRDADVDASQGASAGGLPDLGSLLGGGLGGLMNNPQLMQAAQKMMSNPGAMQNIQKMMQDPSIRQMAEGFASGGGTPNLSDLMNNPALRNMAGNLFGGAGAQSTDETPDNENKQ [E42R], the “effect of a mutation on the interaction” value is listed as “decreasing interaction strength”.
The value for MSASKEEIAALIVNYFSSIVEKKEISEDGARSLNVAMDCISEAFGFEREAVSGILGKSEFKGQHLADILNSASRVPESNKKDDAENVEINIPEDDAETKAKAEDLKMQGNKAMANKDYELAINKYTEAIKVLPTNAIYYANRAAAHSSLKEYDQAVKDAESAISIDPSYFRGYSRLGFAKYAQGKPEEALEAYKKVLDIEGDNATEAMKRDYESAKKKVEQSLNLEKTVPEQSRDADVDASQGASAGGLPDLGSLLGGGLGGLMNNPQLMQAAQKMMSNPGAMQNIQKMMQDPSIRQMAEGFASGGGTPNLSDLMNNPALRNMAGNLFGGAGAQSTDETPDNENKQ [D31R] was “decreasing interaction strength”; that for MSASKEEIAALIVNYFSSIVEKKEISEDGADSLNAAMDCISEAFGFEREAVSGILGKSEFKGQHLADILNSASRVPESNKKDDAENVEINIPEDDAETKAKAEDLKMQGNKAMANKDYELAINKYTEAIKVLPTNAIYYANRAAAHSSLKEYDQAVKDAESAISIDPSYFRGYSRLGFAKYAQGKPEEALEAYKKVLDIEGDNATEAMKRDYESAKKKVEQSLNLEKTVPEQSRDADVDASQGASAGGLPDLGSLLGGGLGGLMNNPQLMQAAQKMMSNPGAMQNIQKMMQDPSIRQMAEGFASGGGTPNLSDLMNNPALRNMAGNLFGGAGAQSTDETPDNENKQ [V35A] was “decreasing interaction strength”.
The entry for MSASKEEIAALIVNYFSSIVEKKEISEDGADSLNVAMRCISEAFGFEREAVSGILGKSEFKGQHLADILNSASRVPESNKKDDAENVEINIPEDDAETKAKAEDLKMQGNKAMANKDYELAINKYTEAIKVLPTNAIYYANRAAAHSSLKEYDQAVKDAESAISIDPSYFRGYSRLGFAKYAQGKPEEALEAYKKVLDIEGDNATEAMKRDYESAKKKVEQSLNLEKTVPEQSRDADVDASQGASAGGLPDLGSLLGGGLGGLMNNPQLMQAAQKMMSNPGAMQNIQKMMQDPSIRQMAEGFASGGGTPNLSDLMNNPALRNMAGNLFGGAGAQSTDETPDNENKQ [D38R] is “disrupting interaction strength”; for MSASKEEIAALIVNYYSSIVEKKEISEDGADSLNVAMDCISEAFGFEREAVSGILGKSEFKGQHLADILNSASRVPESNKKDDAENVEINIPEDDAETKAKAEDLKMQGNKAMANKDYELAINKYTEAIKVLPTNAIYYANRAAAHSSLKEYDQAVKDAESAISIDPSYFRGYSRLGFAKYAQGKPEEALEAYKKVLDIEGDNATEAMKRDYESAKKKVEQSLNLEKTVPEQSRDADVDASQGASAGGLPDLGSLLGGGLGGLMNNPQLMQAAQKMMSNPGAMQNIQKMMQDPSIRQMAEGFASGGGTPNLSDLMNNPALRNMAGNLFGGAGAQSTDETPDNENKQ [F16Y] it is “with no effect”.
